In patent US20050037448A1:

How the values were obtained:
des-31,32-proinsulin [1] = molecular target: des-31,32-proinsulin (UniProt P01308); experiment: sandwich immunoenzymatic C-peptide assay: PEP001 beads, goat polyclonal anti-C-peptide-alkaline phosphatase; no BC9B6
human proinsulin (human) [2] = molecular target: human proinsulin (human) (UniProt P01308); experiment: as above
des-64,65-proinsulin [3] = molecular target: des-64,65-proinsulin (UniProt P01308); experiment: as above
human proinsulin (human) [4] = molecular target: human proinsulin (human) (UniProt P01308); experiment: competitive RIA, PEP001-coated tubes, 125I-Tyr-C-peptide; serum E2 overloaded with 0.67 pmol/ml proinsulin; competitor AC1D4 20 µg/ml
des-64,65-proinsulin [5] = molecular target: des-64,65-proinsulin (UniProt P01308); experiment: competitive RIA, PEP001-coated tubes, 125I-Tyr-C-peptide; serum E2 overloaded with 3.33 pmol/ml des-64,65-proinsulin; competitor AC1D4 20 µg/ml
human proinsulin (human) [6] = molecular target: human proinsulin (human) (UniProt P01308); experiment: competitive RIA, PEP001-coated tubes, 125I-Tyr-C-peptide; serum E2 overloaded with 0.67 pmol/ml proinsulin; no AC1D4
des-31,32-proinsulin [7] = molecular target: des-31,32-proinsulin (UniProt P01308); experiment: competitive RIA, PEP001-coated tubes, 125I-Tyr-C-peptide; serum E2 overloaded with 0.16 pmol/ml des-31,32-proinsulin; competitor AC1D4 20 µg/ml
des-64,65-proinsulin [8] = molecular target: des-64,65-proinsulin (UniProt P01308); experiment: competitive RIA, PEP001-coated tubes, 125I-Tyr-C-peptide; serum E1 overloaded with 0.16 pmol/ml des-64,65-proinsulin; competitor AC1D4 20 µg/ml
human proinsulin (human) [9] = molecular target: human proinsulin (human) (UniProt P01308); experiment: competitive RIA, PEP001-coated tubes, 125I-Tyr-C-peptide; serum E2 overloaded with 0.16 pmol/ml proinsulin; competitor AC1D4 20 µg/ml
des-31,32-proinsulin [10] = molecular target: des-31,32-proinsulin (UniProt P01308); experiment: competitive RIA, PEP001-coated tubes, 125I-Tyr-C-peptide; serum E1 overloaded with 0.67 pmol/ml des-31,32-proinsulin; no AC1D4
des-31,32-proinsulin [11] = molecular target: des-31,32-proinsulin (UniProt P01308); experiment: competitive RIA, PEP001-coated tubes, 125I-Tyr-C-peptide; serum E2 overloaded with 0.67 pmol/ml des-31,32-proinsulin; competitor AC1D4 20 µg/ml
des-31,32-proinsulin [12] = molecular target: des-31,32-proinsulin (UniProt P01308); experiment: competitive RIA, PEP001-coated tubes, 125I-Tyr-C-peptide; serum E1 overloaded with 3.33 pmol/ml des-31,32-proinsulin; competitor AC1D4 20 µg/ml
des-64,65-proinsulin [13] = molecular target: des-64,65-proinsulin (UniProt P01308); experiment: competitive RIA, PEP001-coated tubes, 125I-Tyr-C-peptide; serum E2 overloaded with 0.16 pmol/ml des-64,65-proinsulin; no AC1D4
des-31,32-proinsulin [14] = molecular target: des-31,32-proinsulin (UniProt P01308); experiment: sandwich immunoenzymatic C-peptide assay: PEP001 beads, goat polyclonal conjugate; competitors AC1D4 + BC9B6 in equal quantities, 40 µg/ml
human proinsulin (human) [15] = molecular target: human proinsulin (human) (UniProt P01308); experiment: as above
des-64,65-proinsulin [16] = molecular target: des-64,65-proinsulin (UniProt P01308); experiment: as above
des-31,32-proinsulin [17] = molecular target: des-31,32-proinsulin (UniProt P01308); experiment: sandwich immunoenzymatic C-peptide assay: PEP001 beads, goat polyclonal conjugate; competitors AC1D4 + BC9B6 in equal quantities, 10 µg/ml
human proinsulin (human) [18] = molecular target: human proinsulin (human) (UniProt P01308); experiment: as above
des-64,65-proinsulin [19] = molecular target: des-64,65-proinsulin (UniProt P01308); experiment: as above
des-64,65-proinsulin [20] = molecular target: des-64,65-proinsulin (UniProt P01308); experiment: competitive RIA, PEP001-coated tubes, 125I-Tyr-C-peptide; serum E1 overloaded with 3.33 pmol/ml des-64,65-proinsulin; no AC1D4
des-64,65-proinsulin [21] = molecular target: des-64,65-proinsulin (UniProt P01308); experiment: competitive RIA, PEP001-coated tubes, 125I-Tyr-C-peptide; serum E2 overloaded with 0.67 pmol/ml des-64,65-proinsulin; no AC1D4
des-31,32-proinsulin [22] = molecular target: des-31,32-proinsulin (UniProt P01308); experiment: sandwich immunoenzymatic C-peptide assay: PEP001 beads, goat polyclonal conjugate; competitors AC1D4 + BC9B6 in equal quantities, column head 2 µg/ml
human proinsulin (human) [23] = molecular target: human proinsulin (human) (UniProt P01308); experiment: as above
des-64,65-proinsulin [24] = molecular target: des-64,65-proinsulin (UniProt P01308); experiment: as above
human proinsulin (human) [25] = molecular target: human proinsulin (human) (UniProt P01308); experiment: competitive RIA, PEP001-coated tubes, 125I-Tyr-C-peptide; serum E2 overloaded with 3.33 pmol/ml proinsulin; no AC1D4
des-31,32-proinsulin [26] = molecular target: des-31,32-proinsulin (UniProt P01308); experiment: sandwich immunoenzymatic C-peptide assay: PEP001 beads, goat polyclonal conjugate; competitors AC1D4 + BC9B6 in equal quantities, 20 µg/ml
human proinsulin (human) [27] = molecular target: human proinsulin (human) (UniProt P01308); experiment: as above
des-64,65-proinsulin [28] = molecular target: des-64,65-proinsulin (UniProt P01308); experiment: as above

percentage of cross reaction (des-31,32-proinsulin [1]): 108%
percentage of cross reaction (human proinsulin (human) [2]): 92%
percentage of cross reaction (des-64,65-proinsulin [3]): 94%
Increase after overload (%) (human proinsulin (human) [4]): 1%
Increase after overload (%) (des-64,65-proinsulin [5]): 69%
Increase after overload (%) (human proinsulin (human) [6]): 12%
Increase after overload (%) (des-31,32-proinsulin [7]): 0%
Increase after overload (%) (des-64,65-proinsulin [8]): 10%
Increase after overload (%) (human proinsulin (human) [9]): 0%
Increase after overload (%) (des-31,32-proinsulin [10]): 38%
Increase after overload (%) (des-31,32-proinsulin [11]): 5%
Increase after overload (%) (des-31,32-proinsulin [12]): 21%
Increase after overload (%) (des-64,65-proinsulin [13]): 0%
percentage of cross reaction (des-31,32-proinsulin [14]): 13%
percentage of cross reaction (human proinsulin (human) [15]): 18%
percentage of cross reaction (des-64,65-proinsulin [16]): 7%
percentage of cross reaction (des-31,32-proinsulin [17]): 30%
percentage of cross reaction (human proinsulin (human) [18]): 4%
percentage of cross reaction (des-64,65-proinsulin [19]): 18%
Increase after overload (%) (des-64,65-proinsulin [20]): 267%
Increase after overload (%) (des-64,65-proinsulin [21]): 9%
percentage of cross reaction (des-31,32-proinsulin [22]): 65%
percentage of cross reaction (human proinsulin (human) [23]): 23%
percentage of cross reaction (des-64,65-proinsulin [24]): 48%
Increase after overload (%) (human proinsulin (human) [25]): 54%
percentage of cross reaction (des-31,32-proinsulin [26]): 19%
percentage of cross reaction (human proinsulin (human) [27]): 2%
percentage of cross reaction (des-64,65-proinsulin [28]): 10%
Substance: PEP001 anti-C-peptide monoclonal antibody
